Source: patent publication US20200171068A1, “COMPOSITIONS COMPRISING APTAMERS AND NUCLEIC ACID PAYLOADS AND METHODS OF USING THE SAME” (Children's National Medical Center, priority 2017, published 2020)
Entries after “also recorded” stand apart in the source; their conditions may differ. [C3] = C3 (propyl) spacer linking the 3' end of the DNA aptamer to the passenger RNA

B1: KIT-targeting miR-26a chimera: anti-human KIT DNA aptamer-C3-passenger RNA, passenger RNA-TEG-cholesterol and miR-26a-5p guide strand annealed (SEQ ID NO:4/5, 8, 9) (nucleic acid)
chain 1: GAGGCATACCAGCTTATTCAAGGGGCCGGGGCAAGGGGGGGGTACCGTGGTAGGACATAGTAAGTGCAATCTGCGAA
chain 2: CCUAUUCUGG
chain 3: GUUACUUGCACG
guide: UUCAAGUAAUCCAGGAUAGGCU
modifications: chain 1: DNA, 3' [C3], backbone not given here; chain 2: chemistry not given here; chain 3: chemistry not given here; guide: chemistry not given here; DNA aptamer joined by C3 spacer to passenger RNA, annealed three-part chimera

Columns and labels:
hematopoiesis = assay: Carboplatin-induced myelosuppression in mice; format: in vivo, mouse
Procedure: (§1) For xenograft models, the NSG mice and BALB/c mice were subcutaneously injected with 2×10^6 viable MDA-MB-231 cells and TUBO cells in their right hind limbs, respectively. After the tumor grew to 1 cm in diameter, mice were randomly divided into the groups for each treatment. For no treatment control, 100 μl saline with 1% mouse serum was intravenously injected through tail vein. For treatment groups, 670 pmol/20 g chimeras and/or 5(0 mg/kg 5-fluorouracil (5-FU), or 120 mg/kg carboplatin were also intravenously injected. Tumor sizes were measured in two dimensions every 3 days. Tumor volume (V) was calculated using the following formula: V=(½) S^2×L (S. the shortest dimension; L, the longest dimension). Animals were euthanized when the tumor size was over 2 cm diameters, tumor ulcerated, or became necrotic. For chimera treatment in normal mice, C57BL/6 mice were treated with miR-26a chimera (670 pmol/20 g) everyday for 3 days by intravenous injection. At day 2, 150 mg/kg 5-FU and/or 120 mg/kg carboplatin was injected together with the chimera. Peripheral bloods were collected at day 5 and day 10 after the 5-FU treatment. Complete blood counts were measured by Hemavet 950FS (Drew Scientific, Miami Lakes, Fla., USA).

[1] = tested on: MDA-MB-231 xenograft tumors; assay: MDA-MB-231 xenograft in NSG mice; format: in vivo, mouse
Excerpt: Xenograft model were generated 8-weeks old female immune-deficient NOD-scid IL2Rgamma^null (NSG™, Jackson Laboratories, Bar Harbar, Me., USA) using human breast cancer cell line. Syngeneic TUBO tumors were established in 8-weeks old female BALB/c mice (from Charles River Animal Facility, Frederick, Md., USA). These tumor-bearing mice were randomly assigned to each treatment group. Eight-week old male C57BL/6 mice and C57BL/6 ly5.2 mice (from Charles River Animal Facility, Frederick, Md., USA) were used for bone marrow transplantation assay. The mouse groups assigned for each treatment were not blinded. No statistical methods were used to pre-determined sample size for the analysis of mouse experiments. All the mice were maintained in the Research Animal Facility at Children's National Institute, Children's National Medical Center. The committee on the Use and Care of Animal at Children's National Institute approved all procedures involving experimental animals.
as §1

MDA-MB-231 cells [2] = assay: miR-26a delivery into MDA-MB-231 cells, qPCR; format: cell-based, human; conditions: two days after incubation, compared to control chimera
Excerpt: Total RNAs from cell lines and mouse tissues were extracted by RNeasy Plus Mini kit (Qiagen, Valencia, Calif., USA). miR-26a levels were quantified by Taqman microRNA assay (assay ID; 000405) that covered both has-miR-26a-5p and mmu-miR-26a-5p (Thermo Fisher Scientific) according to manufacturer's protocol. U6 snRNA (Taqman microRNA assay, assay ID; 001973) was used as endogenous control. For qPCR of other genes, cDNAs were synthesized from the purified total RNA with qScript cDNA supermix (Quanta Bio, Gaithersburg, Md., USA). Real-time PCR was performed with Power SYBR Green PCR master mix (Thermo Fisher Scientific) on 7500 Real Time PCR system (Thermo Fisher Scientific). Sequence primers for mouse Bak were […] (forward) (SEQ ID NO: 11) and […] (reverse) (SEQ ID NO:12). For mouse Ezh2, […] (forward) (SEQ ID NO:13) and […] (reverse) (SEQ ID NO:14). For mouse Actb, […] (forward) (SEQ ID NO:15) and […] (reverse) (SEQ ID NO:16) were used as endogenous control.

MDA-MB-231 cells [3] = assay: Growth and apoptosis of MDA-MB-231 cells cultured with chimera; format: cell-based, human; conditions: 3 days of culture
Excerpt: FIG. 1A-FIG. 1H show identification and validation of KIT-targeting miR-26a chimera that inhibits human breast cancer growth in vitro and in vivo. FIG. 1A is a graph showing the overall survival of basal-like breast cancer patients with higher or lower expression of miR-26a-2 based on the expression scores comparing to the mean value in TCGA cohort. FIG. 1B is a graph showing the binding of anti-KIT antibody and KIT DNA aptamer to MDA-MB-231 cell line. Other cell targeting aptamer is specific for Ramos cells. FIG. 1C depicts the secondary structure of KIT aptamer-miR-26a chimera. KIT DNA aptamer was linked with C3 linker to RNA passenger sequence that was complimentary binds to miR-26a mimic sequence. Another RNA passenger sequence binding to the 3′ of miR-26 mimic was conjugated with TEG-cholesterol. FIG. 1D is a graph showing specific miR-26a delivery by the miR-26a chimera. […] After 3 days of culture with miR-26a chimera or control chimera, MDA-MB-231 cell numbers (left) were counted using hemocytometer and Annexin V positive cells (%) (right) was determined by flow cytometry. […]
For aptamer binding assay, streptavidin-APC (Cat #554067) […] Bioscience, San Jose, Calif., USA) was used for detecting the biotin-conjugated aptamers by flow cytometry. […] Flow cytometry analysis was performed on FACS Canto II (BD Bioscience) and the data were analyzed with FlowJo (FLOWJO, Ashland, Oreg., USA). […]

EZH2 protein = assay: EZH2 immunoblot in chimera-treated MDA-MB-231 cells; format: cell-based, human; conditions: 167 nM chimeras for 2 days
Procedure: The cell lysate from MDA-MB-231 cells treated with 167 nM chimeras for 2 days were fractionated by SDS-PAGE and then transferred to PVDF membrane (EMD Millipore, Billerica, Mass., USA). Following blocking with 5% FBS in tris-buffered saline, the membrane was incubated with primary antibody against EZH2 (D2C2) and Histone H3 (Cat #9715) (Cell Signaling Technologies, Danvers, Mass., USA) overnight at 4° C. and then incubated with horseradish peroxidase-conjugated anti-mouse and rabbit IgGs (Thermo Fisher Scientific) for 1 hr. respectively. The antigen-antibody immunoreactivity was detected in ChemiDoc Touch Imaging System (Bio-Rad Hercules, Calif., USA) using SuperSignal West Pico Chemiluminescent Substrate (Thermo Fisher Scientific).

Row | Molecule | red blood cells after carboplatin (hematopoiesis; day 10) | hematopoiesis: WBC and platelet counts after carboplatin (hematopoiesis; single high dose of carboplatin, day 5, compared with vehicle) | tumor growth (tumor volume) ([1]; 5 or 10 daily intravenous injections, 670 pmol/20 g) | survival ([1]; 5 or 10 daily intravenous injections, 670 pmol/20 g, log-rank test vs control chimera) | miR-26a in KIT+ tumor cells ([1]; NSG mice, MDA-MB-231 tumor, 3 days after intravenous injection 670 pmol/20 g, qPCR) | miR-26a in KIT tumor cells (KIT-negative population) ([1]; NSG mice, MDA-MB-231 tumor, 3 days after single injection, qPCR) | miR-26a expression in the MDA-MB-231 cells (MDA-MB-231 cells [2]) | Annexin V positive cells (apoptosis) of MDA-MB-231 cells (MDA-MB-231 cells [3]; flow cytometry) | MDA-MB-231 cell numbers (growth) (MDA-MB-231 cells [3]; hemocytometer) | EZH2 protein expression (EZH2 protein)
1 | N.N.O=C([O-])C1(C(=O)[O-])CCC1.[Pt+2] [carboplatin, reference compound] | reduction of red blood cells was also observed | significant defects in hematopoiesis; also recorded: significantly reduced WBC and platelet counts | – | – | – | – | – | – | – | –
2 | B1 | – | – | significantly suppressed the tumor growth | extended their survival | Significant increase; also recorded: significant elevation | No increase | significant increase; also recorded: successfully delivered miR-26a | induced apoptosis; also recorded: induction of apoptosis | suppressed the growth; also recorded: inhibited cell growth | significant suppression; also recorded: significantly suppressed
